From patent publication US20250304664A1 (VIB VZW, published 2025)

What was measured:
[1] = target: T1, N-glycosylation knocked-out NTCP (NTCPWT_KOG) (human, UniProt Q14973 1-349); test: competition with Nb91, substrate uptake read-out in HEK293 cells expressing NTCPWT-KOG, Nbs at 10 µM
T1 chain: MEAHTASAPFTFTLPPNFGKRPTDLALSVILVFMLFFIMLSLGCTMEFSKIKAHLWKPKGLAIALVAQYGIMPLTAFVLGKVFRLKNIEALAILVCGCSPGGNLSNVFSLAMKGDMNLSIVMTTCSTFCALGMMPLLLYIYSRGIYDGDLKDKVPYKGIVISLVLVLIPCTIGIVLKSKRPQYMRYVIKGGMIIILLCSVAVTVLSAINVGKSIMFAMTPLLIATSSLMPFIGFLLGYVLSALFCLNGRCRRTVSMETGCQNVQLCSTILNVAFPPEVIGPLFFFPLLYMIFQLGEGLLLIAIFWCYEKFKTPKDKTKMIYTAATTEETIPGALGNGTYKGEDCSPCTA

[2] = target: T2, human wild type Sodium taurocholate co-transporting polypeptide (NTCPWT) (human, UniProt Q14973 1-349); test: cell surface labelling, 20 µM Nb87 and 10 µM (AntiC)2-mCherryXL, fluorescence microscopy
T2 construct: Transiently expressed in HEK293 cells; also called SLC10A1; human wildtype NTCP
T2 sequence: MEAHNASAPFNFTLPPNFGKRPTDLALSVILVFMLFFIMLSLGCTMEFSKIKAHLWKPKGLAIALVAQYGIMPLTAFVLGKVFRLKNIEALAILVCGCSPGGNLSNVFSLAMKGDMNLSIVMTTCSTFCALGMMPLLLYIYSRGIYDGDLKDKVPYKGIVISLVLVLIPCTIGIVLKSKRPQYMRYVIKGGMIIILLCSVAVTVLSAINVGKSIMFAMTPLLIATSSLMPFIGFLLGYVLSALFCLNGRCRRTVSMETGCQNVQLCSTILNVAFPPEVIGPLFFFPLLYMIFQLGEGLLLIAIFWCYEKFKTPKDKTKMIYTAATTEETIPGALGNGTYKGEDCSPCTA
Protocol: (§1) Adherent HEK293T cells were seeded at 0.3×10⁶/mL using 500 μl per well in a 24-well plate and incubated for 2 days. 5 μg of cDNA coding for NTCP, or control neurotransmitter (EAAT1) was transfected as follows: (1) 5 μg DNA was mixed with 50 μl Opti-MEM and incubated for 5 min; (2)² μl lipofeactamine was mixed with 50 μl of Opti-MEM and incubated for 5 min: (3) DNA and lipofectamine solutions were mixed in 1:1 ratio and incubated for 20 min. 100 μl of the mixture was added to each well. After incubation for 6-8 h the medium was changed to DMEM medium, and incubated for 2 days post transfection. […] Excess of primary unlabeled Nb was removed and 10 μM of the secondary labelled Nb ((AntiC)2-mCherryXL) was added following a 1 h incubation. Cells were washed once with fresh medium prior to detection of fluorescence on an inverted microscope.

[3] = target: T3, NTCP consensus-mutant construct used for cryo-electron microscopy structure determination (NTCPEM) (human (consensus design), UniProt Q14973 2-328); test: cell-based or functional assay
T3 chain: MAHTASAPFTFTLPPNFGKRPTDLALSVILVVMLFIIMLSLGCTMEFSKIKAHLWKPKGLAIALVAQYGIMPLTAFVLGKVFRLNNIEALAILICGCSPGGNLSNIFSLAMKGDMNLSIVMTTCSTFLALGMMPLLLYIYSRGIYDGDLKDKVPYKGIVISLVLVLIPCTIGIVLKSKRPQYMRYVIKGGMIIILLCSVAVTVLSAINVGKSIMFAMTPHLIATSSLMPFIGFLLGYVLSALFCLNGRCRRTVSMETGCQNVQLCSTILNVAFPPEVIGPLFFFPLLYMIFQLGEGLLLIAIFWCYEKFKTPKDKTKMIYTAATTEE

[4] = target: T4, excitatory amino acid transporter, EAAT1 (UniProt P43003 1-542, limits assumed); test: cell surface labelling of transfected HEK293T cells, Nb87 as primary Nb and (AntiC)2-mCherryXL as secondary Nb, fluorescence microscopy
T4 construct: whole, on cells; Negative control expressed on HEK293T cells; also called unrelated neurotransmitter transporter
Protocol: as §1

[5] = target: T1, N-glycosylation knocked-out NTCP …; test: competition with Nb87, substrate uptake read-out in HEK293 cells expressing NTCPWT-KOG, Nbs at 2 µM

T4 sequence (P43003 whole entry): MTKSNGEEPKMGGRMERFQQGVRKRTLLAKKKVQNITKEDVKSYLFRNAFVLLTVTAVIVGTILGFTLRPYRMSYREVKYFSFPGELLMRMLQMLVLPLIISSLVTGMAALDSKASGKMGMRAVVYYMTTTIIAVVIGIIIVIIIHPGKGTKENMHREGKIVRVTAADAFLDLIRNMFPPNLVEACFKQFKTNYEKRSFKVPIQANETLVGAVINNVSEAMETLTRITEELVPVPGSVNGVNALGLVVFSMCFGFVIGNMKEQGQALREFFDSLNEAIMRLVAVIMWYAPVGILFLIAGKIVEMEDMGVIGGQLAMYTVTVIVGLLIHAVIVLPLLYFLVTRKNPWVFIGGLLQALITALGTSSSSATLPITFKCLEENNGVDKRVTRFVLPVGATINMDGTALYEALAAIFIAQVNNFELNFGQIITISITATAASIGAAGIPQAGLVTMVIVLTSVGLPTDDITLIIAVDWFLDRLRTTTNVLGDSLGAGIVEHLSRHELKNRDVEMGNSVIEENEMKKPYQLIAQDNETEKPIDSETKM

Binder | binding result [1] | binding result [5] | other results
NbNTCP_91- N27D variant (VHH, Single mutant of Nb91; also called Nb91 N27D) VHH: QVQLVESGGGLVEAGGSLRLSCAASTDLRSYAMAWFRQAPGKEREFVSFINWNYGNTRYADSVKGRFTISRDNAKITVYLQMNSLKPEDTAVYYCAAATIGRLAGIDSTTLYDYWGQGTQVTVSS | binds |  | 
NbNTCP_91- N27Q variant (VHH, Single mutant of Nb91; also called Nb91 N27Q) VHH: QVQLVESGGGLVEAGGSLRLSCAASTQLRSYAMAWFRQAPGKEREFVSFINWNYGNTRYADSVKGRFTISRDNAKITVYLQMNSLKPEDTAVYYCAAATIGRLAGIDSTTLYDYWGQGTQVTVSS | binds |  | 
NbNTCP_91-N53D variant (VHH, Single mutant of Nb91; also called Nb91 N53D) VHH: QVQLVESGGGLVEAGGSLRLSCAASTNLRSYAMAWFRQAPGKEREFVSFINWDYGNTRYADSVKGRFTISRDNAKITVYLQMNSLKPEDTAVYYCAAATIGRLAGIDSTTLYDYWGQGTQVTVSS | binds |  | 
NbNTCP_91- N27E variant (VHH, Single mutant of Nb91; also called Nb91 N27E) VHH: QVQLVESGGGLVEAGGSLRLSCAASTELRSYAMAWFRQAPGKEREFVSFINWNYGNTRYADSVKGRFTISRDNAKITVYLQMNSLKPEDTAVYYCAAATIGRLAGIDSTTLYDYWGQGTQVTVSS | binds |  | 
NbNTCP_91- R29G variant (VHH, Single mutant of Nb91; also called Nb91 R29G; NbNTOP_91- R29G variant) VHH: QVQLVESGGGLVEAGGSLRLSCAASTNLGSYAMAWFRQAPGKEREFVSFINWNYGNTRYADSVKGRFTISRDNAKITVYLQMNSLKPEDTAVYYCAAATIGRLAGIDSTTLYDYWGQGTQVTVSS | binds |  | 
NbNTCP_91- R29N variant (VHH, Single mutant of Nb91; also called Nb91 R29N) VHH: QVQLVESGGGLVEAGGSLRLSCAASTNLNSYAMAWFRQAPGKEREFVSFINWNYGNTRYADSVKGRFTISRDNAKITVYLQMNSLKPEDTAVYYCAAATIGRLAGIDSTTLYDYWGQGTQVTVSS | binds |  | 
NbNTCP_91- R29S variant (VHH, Single mutant of Nb91; also called Nb91 R29S) VHH: QVQLVESGGGLVEAGGSLRLSCAASTNLSSYAMAWFRQAPGKEREFVSFINWNYGNTRYADSVKGRFTISRDNAKITVYLQMNSLKPEDTAVYYCAAATIGRLAGIDSTTLYDYWGQGTQVTVSS | binds |  | 
NbNTCP_91- L103N variant (VHH, Single mutant of Nb91; also called Nb91 L103N) VHH: QVQLVESGGGLVEAGGSLRLSCAASTNLRSYAMAWFRQAPGKEREFVSFINWNYGNTRYADSVKGRFTISRDNAKITVYLQMNSLKPEDTAVYYCAAATIGRNAGIDSTTLYDYWGQGTQVTVSS | binds |  | 
NbNTCP_87 (VHH, Family 21; expressed in E. coli periplasm; also called Nb87) VHH: QVQLVESGGGLVQAGGSLRLSCAVSGRTTANYNMGWFRQAPGKEREFVAGIKWSSGSTYVADSAKGRFTISRDNAKNSVYLQMDSLKPEDTALYYCAANYYGVSWFLISPSSYDYWGQGTQVTVSS |  |  | binding result [2]: binds; half-maximal inhibitory concentrations (IC50) of Na+-induced fluorescent-substrate uptake by cells expressing NTCPEM [3]: ~180 nM; binding result [4]: no binding (tested: 20 µM Nb87)
NbNTCP_87 - S55Q variant (VHH, Single mutant of Nb87; also called Nb87 S55Q) VHH: QVQLVESGGGLVQAGGSLRLSCAVSGRTTANYNMGWFRQAPGKEREFVAGIKWSQGSTYVADSAKGRFTISRDNAKNSVYLQMDSLKPEDTALYYCAANYYGVSWFLISPSSYDYWGQGTQVTVSS |  | binds | 
NbNTCP_87 -A30Q variant (VHH, Single mutant of Nb87; also called Nb87 A30Q) VHH: QVQLVESGGGLVQAGGSLRLSCAVSGRTTQNYNMGWFRQAPGKEREFVAGIKWSSGSTYVADSAKGRFTISRDNAKNSVYLQMDSLKPEDTALYYCAANYYGVSWFLISPSSYDYWGQGTQVTVSS |  | binds | 
NbNTCP_87 - S55E variant (VHH, Single mutant of Nb87; also called Nb87 S55E) VHH: QVQLVESGGGLVQAGGSLRLSCAVSGRTTANYNMGWFRQAPGKEREFVAGIKWSEGSTYVADSAKGRFTISRDNAKNSVYLQMDSLKPEDTALYYCAANYYGVSWFLISPSSYDYWGQGTQVTVSS |  | binds | 
NbNTCP_87 - S111R variant (VHH, Single mutant of Nb87; also called Nb87 S111R) VHH: QVQLVESGGGLVQAGGSLRLSCAVSGRTTANYNMGWFRQAPGKEREFVAGIKWSSGSTYVADSAKGRFTISRDNAKNSVYLQMDSLKPEDTALYYCAANYYGVSWFLISPRSYDYWGQGTQVTVSS |  | binds | 
